Assay in all cases: Crosslinking/co-immunoprecipitation/mass spectrometry (TMT quantitative proteomics) to identify irisin receptors
Assay type in all cases: binding

Test [1] concerns the target T1, MLO-Y4 cell surface proteins (Mus musculus, UniProt Q62028).
T1 construct: endogenous in cells; host or cells: MLO-Y4
The following applies: co-precipitated protein Pla2r1 (PLA2R_MOUSE). The procedure, abridged:
(§1)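 Relative protein abundance came from 6-plex TMT MS3 quantitation on an Orbitrap Fusion Lumos, after in-gel trypsin digestion of Coomassie-stained SDS-PAGE lanes. Input was a Ni-NTA pulldown (250 mM imidazole elution) of lysates from murine MLO-Y4 cells. These cells were treated on ice with His-tagged irisin or adipsin (10 nM, 20 min) in serum-free medium, then crosslinked with 1.5 mM DTSSP for 30 min.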

The target in test [2] is T2, MLO-Y4 cell surface proteins (Mus musculus, UniProt Q6ZPE2).
T2 construct: endogenous in cells; host or cells: MLO-Y4
T2 sequence (Q6ZPE2 whole entry): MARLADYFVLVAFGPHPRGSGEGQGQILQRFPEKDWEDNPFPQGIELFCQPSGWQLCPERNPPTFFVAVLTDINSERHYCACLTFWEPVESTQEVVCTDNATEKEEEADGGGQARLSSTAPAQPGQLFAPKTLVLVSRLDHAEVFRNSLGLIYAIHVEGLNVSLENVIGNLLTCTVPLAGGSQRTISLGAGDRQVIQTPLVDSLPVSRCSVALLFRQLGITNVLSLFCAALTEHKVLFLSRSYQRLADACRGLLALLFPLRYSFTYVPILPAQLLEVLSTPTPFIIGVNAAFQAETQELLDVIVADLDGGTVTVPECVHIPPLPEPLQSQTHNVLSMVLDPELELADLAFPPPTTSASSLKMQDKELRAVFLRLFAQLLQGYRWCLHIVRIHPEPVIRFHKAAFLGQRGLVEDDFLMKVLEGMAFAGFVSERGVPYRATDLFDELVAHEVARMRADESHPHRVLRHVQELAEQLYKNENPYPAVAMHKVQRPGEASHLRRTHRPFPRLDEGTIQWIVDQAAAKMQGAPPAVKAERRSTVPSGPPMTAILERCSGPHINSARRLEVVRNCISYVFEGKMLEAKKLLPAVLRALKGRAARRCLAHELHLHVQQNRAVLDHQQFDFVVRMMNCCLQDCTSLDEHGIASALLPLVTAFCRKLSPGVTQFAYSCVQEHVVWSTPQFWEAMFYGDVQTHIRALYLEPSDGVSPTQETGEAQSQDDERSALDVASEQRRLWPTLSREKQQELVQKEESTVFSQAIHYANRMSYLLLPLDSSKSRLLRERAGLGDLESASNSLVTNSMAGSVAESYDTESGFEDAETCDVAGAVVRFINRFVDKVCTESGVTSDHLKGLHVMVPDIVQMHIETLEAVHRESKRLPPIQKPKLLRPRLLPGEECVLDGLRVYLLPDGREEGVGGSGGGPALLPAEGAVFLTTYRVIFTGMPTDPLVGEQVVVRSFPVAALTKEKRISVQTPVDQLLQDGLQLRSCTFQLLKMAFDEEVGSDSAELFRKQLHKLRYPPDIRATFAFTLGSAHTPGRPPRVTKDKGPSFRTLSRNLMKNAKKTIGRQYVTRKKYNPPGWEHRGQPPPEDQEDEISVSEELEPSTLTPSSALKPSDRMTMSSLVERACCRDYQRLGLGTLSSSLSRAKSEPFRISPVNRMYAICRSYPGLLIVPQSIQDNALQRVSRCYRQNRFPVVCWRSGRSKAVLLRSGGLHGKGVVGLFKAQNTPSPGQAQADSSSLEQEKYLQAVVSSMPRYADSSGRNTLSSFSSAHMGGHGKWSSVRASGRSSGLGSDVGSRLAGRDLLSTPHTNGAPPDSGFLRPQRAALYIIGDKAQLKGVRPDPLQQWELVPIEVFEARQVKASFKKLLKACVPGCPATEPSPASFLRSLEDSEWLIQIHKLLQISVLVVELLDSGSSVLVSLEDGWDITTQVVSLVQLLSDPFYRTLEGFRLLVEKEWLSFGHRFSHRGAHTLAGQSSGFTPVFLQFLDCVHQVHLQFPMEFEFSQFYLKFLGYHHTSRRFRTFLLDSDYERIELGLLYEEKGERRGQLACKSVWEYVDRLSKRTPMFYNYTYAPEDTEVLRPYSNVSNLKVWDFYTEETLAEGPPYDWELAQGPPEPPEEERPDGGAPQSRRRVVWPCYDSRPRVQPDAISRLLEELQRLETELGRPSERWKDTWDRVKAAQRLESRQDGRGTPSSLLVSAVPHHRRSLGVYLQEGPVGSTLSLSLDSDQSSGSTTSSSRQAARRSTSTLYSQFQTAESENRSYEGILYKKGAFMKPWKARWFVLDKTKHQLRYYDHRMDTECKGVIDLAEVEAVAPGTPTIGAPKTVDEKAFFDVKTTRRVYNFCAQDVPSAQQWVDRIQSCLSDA
The following applies: co-precipitated protein Sbf1 (MTMR5_MOUSE). Summed up:
as §1

Test [3] deals with T3, MLO-Y4 cell surface proteins (Mus musculus, UniProt Q921G7).
T3 construct: endogenous in cells; host or cells: MLO-Y4
T3 sequence (Q921G7 33-616): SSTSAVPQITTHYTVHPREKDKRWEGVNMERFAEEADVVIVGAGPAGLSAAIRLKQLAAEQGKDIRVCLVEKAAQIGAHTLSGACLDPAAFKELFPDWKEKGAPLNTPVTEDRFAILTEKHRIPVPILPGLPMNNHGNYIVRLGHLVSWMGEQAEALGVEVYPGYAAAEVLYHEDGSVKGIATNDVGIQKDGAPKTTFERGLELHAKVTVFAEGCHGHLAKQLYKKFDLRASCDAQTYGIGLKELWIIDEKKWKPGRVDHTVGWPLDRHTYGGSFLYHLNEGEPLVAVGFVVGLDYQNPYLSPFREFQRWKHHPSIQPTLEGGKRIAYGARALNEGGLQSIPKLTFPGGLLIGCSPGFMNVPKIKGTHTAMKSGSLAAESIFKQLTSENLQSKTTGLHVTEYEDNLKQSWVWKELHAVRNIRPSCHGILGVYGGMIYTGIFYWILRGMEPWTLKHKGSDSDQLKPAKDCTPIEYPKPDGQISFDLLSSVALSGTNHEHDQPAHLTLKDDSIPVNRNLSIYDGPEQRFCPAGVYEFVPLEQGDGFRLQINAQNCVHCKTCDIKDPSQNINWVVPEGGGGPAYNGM
The conditions noted are these: co-precipitated protein Etfdh (ETFD_MOUSE). Summed up:
as §1

Test [4] deals with T4, MLO-Y4 cell surface proteins (Mus musculus, UniProt O70404).
T4 construct: endogenous in cells; host or cells: MLO-Y4
T4 sequence (O70404 1-101): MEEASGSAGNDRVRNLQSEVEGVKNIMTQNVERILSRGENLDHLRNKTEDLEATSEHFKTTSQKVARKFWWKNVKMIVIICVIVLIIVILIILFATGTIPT
The conditions noted are these: co-precipitated protein Vamp8 (VAMP8_MOUSE). Summed up: as §1

T1 sequence (Q62028 27-1487): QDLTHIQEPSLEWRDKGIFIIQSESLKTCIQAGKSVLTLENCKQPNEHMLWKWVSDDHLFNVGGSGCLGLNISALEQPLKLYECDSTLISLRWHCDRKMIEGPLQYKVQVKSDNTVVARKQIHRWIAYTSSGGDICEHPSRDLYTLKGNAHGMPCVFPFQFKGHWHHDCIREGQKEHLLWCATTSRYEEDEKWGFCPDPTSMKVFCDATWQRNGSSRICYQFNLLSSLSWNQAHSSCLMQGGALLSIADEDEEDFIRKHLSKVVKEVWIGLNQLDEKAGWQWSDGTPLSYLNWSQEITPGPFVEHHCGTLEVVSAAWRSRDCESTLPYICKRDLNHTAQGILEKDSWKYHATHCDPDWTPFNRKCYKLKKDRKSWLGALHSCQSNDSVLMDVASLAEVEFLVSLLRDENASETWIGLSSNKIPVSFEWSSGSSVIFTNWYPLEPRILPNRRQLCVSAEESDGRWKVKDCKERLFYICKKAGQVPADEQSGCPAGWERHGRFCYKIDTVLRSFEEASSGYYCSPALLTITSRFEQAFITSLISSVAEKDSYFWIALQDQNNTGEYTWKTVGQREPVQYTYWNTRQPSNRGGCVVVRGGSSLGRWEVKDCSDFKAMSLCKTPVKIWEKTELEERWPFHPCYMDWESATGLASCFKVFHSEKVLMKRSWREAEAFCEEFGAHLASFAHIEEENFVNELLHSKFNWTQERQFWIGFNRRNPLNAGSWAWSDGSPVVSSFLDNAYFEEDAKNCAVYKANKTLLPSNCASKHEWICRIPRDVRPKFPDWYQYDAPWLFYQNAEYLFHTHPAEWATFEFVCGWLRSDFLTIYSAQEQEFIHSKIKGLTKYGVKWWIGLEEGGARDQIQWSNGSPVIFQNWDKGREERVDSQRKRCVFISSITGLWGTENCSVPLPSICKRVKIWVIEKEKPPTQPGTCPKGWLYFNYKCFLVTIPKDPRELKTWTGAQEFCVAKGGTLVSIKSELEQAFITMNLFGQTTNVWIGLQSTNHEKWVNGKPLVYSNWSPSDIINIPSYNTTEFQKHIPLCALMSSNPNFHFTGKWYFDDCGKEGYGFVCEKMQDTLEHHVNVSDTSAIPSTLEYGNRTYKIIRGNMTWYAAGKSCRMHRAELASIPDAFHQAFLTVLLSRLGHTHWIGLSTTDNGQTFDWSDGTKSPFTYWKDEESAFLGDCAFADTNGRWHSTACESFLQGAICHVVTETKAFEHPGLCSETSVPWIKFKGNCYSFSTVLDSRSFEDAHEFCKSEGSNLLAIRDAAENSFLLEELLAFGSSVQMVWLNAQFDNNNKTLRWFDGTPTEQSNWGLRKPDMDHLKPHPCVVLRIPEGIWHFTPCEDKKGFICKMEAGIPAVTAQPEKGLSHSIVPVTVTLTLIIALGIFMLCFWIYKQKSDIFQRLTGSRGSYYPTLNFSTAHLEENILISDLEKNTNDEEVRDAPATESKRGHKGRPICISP

Take adipsin: the TMT signal-to-noise ratio in test [1] is listed as 519.664; in test [2] it was 71.1304; in test [3], 57.6477; in test [4] it was 300.176.

Values taken from US20210063414A1, “METHODS FOR PREVENTING AND/OR TREATING BONE LOSS CONDITIONS BY MODULATING IRISIN” (Dana-Farber Cancer Institute, Inc., priority 2018, published 2021).
